Test results taken from the nanobody polyreactivity screen of Harvey et al. (2022).

assay: yeast display, Sf9 membrane polyspecificity reagent, FACS + sequencing; frameworks hold sequencing errors
Procedure, shortened: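 A synthetic nanobody library was expressed on Saccharomyces cerevisiae BJ5465 by galactose induction for 36–48 hours. The library was stained for 1 hour at 4 °C with 10% biotinylated, detergent-solubilized Sf9 membrane reagent and enriched with streptavidin microbeads before FACS. Low and high (top ~1%) gates were set on anti-HA fluorescence for expression and streptavidin fluorescence for reagent binding, and each polyreactivity label reflects the gate of origin.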

| Sequence | polyreactivity (PSR sort gate) |
| --- | --- |
| QVQLVESGGGLVQAGGSLRLSCAASGSIFVYNAMGWYRQAPGKERELVASITWSGGRTYYADSVKGRFTISRDNAKNTVYLQMNSLKPEDTAVYYCNVRQGGPTVTWEYDYWGQGTQVTVSS | high polyreactivity |
| QVQLVESGGGLVQAGGSLRLSCAASGSIFVYNDMGGYRQAPGKERELVAGIDWSGDRTYADSVKGRFTISRDNAKNTVYLQMNSLKPEDTAVYYCIADEWRWDEILPYAVDYWGQGTQVTVSS | low polyreactivity |
| QVQLVESGGGLVQAGGSLRLSCAASGSIFVYNDMGWYRQAPGKERELVAGIDWSGDRTYADSVKGRFTISRDNAKYTVYLQMNSLKPEDTAVYYCNAERYPYRLRARKLDYWGQGTQVTVSS | low polyreactivity |
| QVQLVESGGGLVQAGGSLRLSCAASGSIFVYNVMGWYRQAPGKERELVAAISKTAGRTYYEDSVKGRFTISRDNAKNTVYLQMNSLKPEDTAVYYFAVGNKRDAYYQYSSYGYWGQGTQVTVSS | low polyreactivity |
| QVQLVESGGGLVQAGGSLRLSCAASGSIFVYYAMGWYRPAPGKERELVASISRGGTSTYYADSVKGRFTISRDNAKNTVYFQMNSLKPEDTAVYYCAAQPYRTGTYDYWGQGTQVTVSS | low polyreactivity |
| QVQLVESGGGLVQAGGSLRLSCAASGSIFVYYAMGWYRQAPGKDRELVAAITTSGGSTYYADSVKGRFTISRDNAKNTVYLQMNSLKPEDTAVYYCAAVLLAWYWSYSVPWAYDYWGQGTQVTVTS | low polyreactivity |
| QVQLVESGGGLVQAGGSLRLSCAASGSIFVYYAMGWYRQAPGKERELVAAITETGGDTYYADSVKGRFTISRDNAKNTVYLQMNSLKPEDTAVYYCNTVRRSYWSWSTENSDYWGQGTQVTVSS | low polyreactivity |
| QVQLVESGGGLVQAGGSLRLSCAASGSIFVYYAMGWYRQAPGKERELVASISESDGSTSYADSVKGRFTISRDNAKNTVYLQMNSLKPEDTAVYYCAADPYFFWYSPSFDYWGQGSQVTVSS | low polyreactivity |
| QVQLVESGGGLVQAGGSLRLSCAASGSIFVYYAMRWYRQAPGKERELVAAITIGASTDYADSVKGRFTISRDNAKNTVYLQMNSLKPEDTAVYYCAADLYYGDYRTLPKPDEYDYWGQGTQVTVSS | low polyreactivity |
| QVQLVESGGGLVQAGGSLRLSCAASGSIFVYYTMGWYRQAPGKERELVAAISFSGGSTYADSVKGRFTISRDNAKNTVYLQMNSLKPEDTAVYFCNADRWLYTPSKFVEMDYWGQGTQVTVSS | low polyreactivity |
| QVQLVESGGGLVQAGGSLRLSCAASGSIFWANAMGWYRQAPGKERELVAAISSSGGGTYYADSVKGRFTISRDNAKNTVYLQMNSLKPVDTAVYYCNKLRLDYYEQGDYWGQGSQVTVSS | high polyreactivity |
| QVQLVESGGGLVQAGGSLRLSCAASGSIFWAYTMGWYRQAPGKERELVAAISASGGSTYYADSVKGRFTISRDNAKNTVYLQMNSLKPEDTAVYYCAAVYDLGYYGPIWAIVLDDYWGQGTQVTVSS | low polyreactivity |
| QVQLVESGGGLVQAGGSLRLSCAASGSIFWGNAMGWYRQAPGKERELVAAIDWSGGSTYYADSVKGRFTISRDNAKNTVYLQMNSLKPEDTAVYYCAADYLGGGDVGFDYWGQGTQVTVSS | low polyreactivity |
| QVQLVESGGGLVQAGGSLRLSCAASGSIFWGNAMGWYRQAPGKERELVAAITGSGGSSYYADSVKGRFTISRDNAKNRVYLLMNSVKPEDTAVYYCADLFRTFYYWGQGTQVTVSS | high polyreactivity |
| QVQLVESGGGLVQAGGSLRLSCAASGSIFWGYAMGWYRQAPGKERELVATISWTGGSTYYADSVKGRFTISRDNAKNTVYLQMNSLKPEDTAVYYGAKVIIHYYYVVNLVDVDYWGQGTQVTVSS | low polyreactivity |
| QVQLVESGGGLVQAGGSLRLSCAASGSIFWIYAMGWYRQAPGKERELVARITWTGGRTYYADSVKGRFTISRDNAKNTVYLQMNSLKPEDTAVYYCAVTSYRQRGAFDYWGQGSQVTVSS | high polyreactivity |
| QVQLVESGGGLVQAGGSLRLSCAASGSIFWLYAMGWYRQAPGKERELVAAIDSGDSTKYADSVKGRFTISRDNAKNTVYLQMNSLKPEDTAVYYCNVRLGDRFFRHDYWGQGTQVTVSS | low polyreactivity |
| QVQLVESGGGLVQAGGSLRLSCAASGSIFWLYAMGWYRQAPGKERELVAAMSWSGTSTNYADSVKGRFTISRDIAKNTVYLQMNRLKPEDTAVYYCAKRWNNQKLFGYEEEYDYWGQGTQVTGSS | low polyreactivity |
| QVQLVESGGGLVQAGGSLRLSCAASGSIFWLYTMGWYRQAPGKERELVATITQSGSTYYADSVKGRFTISRDNAKNTVYLQMNSLKPEDTAVYYCAARVVWGPESDYWGQGTQVTVSS | low polyreactivity |
| QVQLVESGGGLVQAGGSLRLSCAASGSIFWPNPMGGYRQAPGKERELVAGSTFSGGSTYADSVKGRFTISRDNAKNTVYLQMNSLKPEDTAVYYCAVVYYRDPRMDFWRQGTQVTVSS | high polyreactivity |
| QVQLVESGGGLVQAGGSLRLSCAASGSIFWRNAMGWYRQAPGKERELVAAISRVGSTNYADSVKGRFTISRDNAKNTVYLQMNSLKPEDTAVYYCAADGTVVRDFDYWGQGTQVTVSS | low polyreactivity |
| QVQLVESGGGLVQAGGSLRLSCAASGSIFWRNVMGWYRQAPGKERELVAAISSGGSTYYADSVKGRFTISRDNAKNTVYLQMNSLKPEDTAVYYCAAPRYDYWGQGTQVTVSS | high polyreactivity |

| Sequence | polyreactivity (PSR sort gate) |
| --- | --- |
| QVQLVESGGGLVQAGGSLRLSCAASGSIFWSYAMGWYRQAPGKERELVAAINWSGGRTYYADSVKGRFTISRDNAQNTVYLQMNSLKPEDTAVYYCNAPVHTAQGDEYDYWGQGTQVTVSS | high polyreactivity |
| QVQLVESGGGLVQAGGSLRLSCAASGSIFWSYAMGWYRQAPGKERELVAVINWSGGSTYYADSVKGRFTISRDNAKNTVYLQMNSLKPEDTAVYYCNKDLGPTKRPFTFDYWGQGTQVTVSS | low polyreactivity |
| QVQLVESGGGLVQAGGSLRLSCAASGSIFWSYAMGWYRQATGKERELVAAITWSGGNTYADSVKGRFTISRDNAKNTVYLQMNSLKPEDTAVYYCAADPAHGTKWYVYPSHDDYWGQGTQVTVSS | low polyreactivity |
| QVQLVESGGGLVQAGGSLRLSCAASGSIFWTNAMGWYRQAPGKERELVARITYSGGSTYSADSVKGRFTISRDNAKNTVYLQMNSLKPEDTAVYYCNARTHGWPYSRYYYWGQGTQVTVSS | high polyreactivity |
| QVQLVESGGGLVQAGGSLRLSCAASGSIFWWNAMGWYRQAPGKERELVASIGDSTYYADSVKGRFTISRDNAKNTVYLQMNSLKPEDTAVYYCYAEVLNYLVFGYQLGYDYWGQGTQVTVSS | low polyreactivity |
| QVQLVESGGGLVQAGGSLRLSCAASGSIFWYNDMGWYRQAPGKEREFVAAITWDDGSTYYADSVKGRFTISRDNAKNTVYLQMNSLKPEDTAVYYCAAYVWYYDPASGWFITDYDYWGQGTQVTVSS | high polyreactivity |
| QVQLVESGGGLVQAGGSLRLSCAASGSIFWYNTMGWYRPAPGKERELVAAISKSGTSTYYADSVKGRFTISRDNAKNTVYLQMNSLKPEDTAVYYCAAALPGYGDYYYWGQGTQVTVSS | high polyreactivity |
| QVQLVESGGGLVQAGGSLRLSCAASGSIFWYNTMGWYRQAPGKERELVASISWDGGTYYADSVKGRFTISRDNAKNTVYLQMNSLKPEVTAVYYCNVAWYWGYDYWGQGTQVTVSS | low polyreactivity |
| QVQLVESGGGLVQAGGSLRLSCAASGSIFWYYAMGWYRQAPGKERELVAAISASGSSTYYADSVKGRFTISRDNAKNTVYLQMNSLKPEDTAVYDCAATYSLYNDWLYHYFPEEYDYWGQGTQVTVSS | low polyreactivity |
| QVQLVESGGGLVQAGGSLRLSCAASGSIFWYYAMGWYRQAPGKERELVAAISSGGSTYYADSVKGRYTISRDNAKNTVYLQMNSLKPEDTAVYYCAAGAFGQILNYWGQGTQVTVSS | high polyreactivity |
| QVQLVESGGGLVQAGGSLRLSCAASGSIFYANAMGWYRQAPGKERELVAAISRSGGRTYYADSVKGRFTISRDNAKNTVYLQMNSLKPEDTAVYYCNAVYVSYTYQQTRSGGYDYWGQGTQVTVSS | high polyreactivity |
| QVQLVESGGGLVQAGGSLRLSCAASGSIFYANVKGWSRQAPGKERELDATISISSSTNYADSVKGRFTISRDNAKNTVYLQMNSLKPEDTAVYYCNASFGHHYSYWVDTSYDYWGQGTQVTVSS | low polyreactivity |
| QVQLVESGGGLVQAGGSLRLSCAASGSIFYAYAMGWYRQAPGKERELVAGINTRGGSTYYADSVKGRFTISRDNAKNTVYLQMNSLKPEDTAVYYCNARTLTVLEFDYWGQGTQVTVSS | low polyreactivity |
| QVQLVESGGGLVQAGGSLRLSCAASGSIFYAYAMGWYRQAPGKERELVATITSGGSTNYADSVKGRFTISRDNAKNTVYLQMNSLKPEDTAVYYCAVDISYSLGGGFGYDYWGQGTQVTVSS | low polyreactivity |
| QVQLVESGGGLVQAGGSLRLSCAASGSIFYAYYMGWYRQAPGKESELVAAINWSGDSTYYADSVKGRFTISRDNAKNTVYLQMNSLKPEDTAVYYCAAVSGSGDSGEYDYWGQGTQVTVSS | low polyreactivity |
| QVQLVESGGGLVQAGGSLRLSCAASGSIFYDYALGWYRQAPGKERELVAAINSGDSTYYADSVKGRFTISRDNAKNTVYLQMNSLKPEDTAVYYCAATYFSPFIEYDYWGQGTQVTVSS | low polyreactivity |
| QVQLVESGGGLVQAGGSLRLSCAASGSIFYENTMGWYRQAPGKERELVASISGGGSTYADSVKGRFTISRDNAKHTVYLQMNSLKPEDTAVYYCNADSSTEYDYWGQGTQVTVSA | low polyreactivity |
| QVQLVESGGGLVQAGGSLRLSCAASGSIFYENVMGWYRQAPGKERELVAGISRSGGRTYYADSVKGRFTISRDNAKNTVYFQMNSLKPEDTAVYYCAALTPRNRYRKFDYWGQGTQVTVSS | high polyreactivity |
| QVQLVESGGGLVQAGGSLRLSCAASGSIFYEYAMGWYRQAPGKERELLASINRGGGSTYYADSVKGRFTISRDNAKNTVYLQMNSLKPEDTAVYYCAAQWKYRQSYLDYYWGQGTQVTVSS | low polyreactivity |
| QVQLVESGGGLVQAGGSLRLSCAASGSIFYEYAMGWYRQAPGKERELVAAINWDGGTYYADSVKGRFTISRDNAKNTVYLQMNSLKPEDTAVYYCAKPYDWGVYSQSDSDYWGQGTQVTVSS | low polyreactivity |
| QVQLVESGGGLVQAGGSLRLSCAASGSIFYFNAMGWYRQAPGKERELVAAINYSGGSTYYADSVKGRFTISRDNAKNTVYLQMNSLKPEDTAVYYCAAVTYFGWYPYRMEYWGQGTQVTVSS | high polyreactivity |
